This assay addresses human plasmin (formed from plasminogen incubated with equimolar SAK or RGD-SAK) (human).

With “RGD-SAK (staphylokinase with K35 replaced by Arg) (from UniProt P68802 28-163) (natural protein)”, the kcat/Km of plasminogen activation by the preformed equimolar RGD-SAK-plasmin complex, monitored with S-2251 was 37000 M⁻¹ s⁻¹.
In the case of “staphylokinase (SAK) (from UniProt P68802 28-163) (natural protein)”, the kcat/Km of plasminogen activation by the preformed equimolar SAK-plasmin complex, monitored with S-2251 was 33000 M⁻¹ s⁻¹.

The values above are taken from PMC2194782.
